Data from patent US20250382602.
Positions count from the first letter of the chain named.

Legend:
[1] = target: T1, Dda 1993 K358I K358I (Enterobacteria phage T4) (UniProt P32270); conditions: nanopore translocation, FLO-MIN106; background mutations not given
T1 sequence: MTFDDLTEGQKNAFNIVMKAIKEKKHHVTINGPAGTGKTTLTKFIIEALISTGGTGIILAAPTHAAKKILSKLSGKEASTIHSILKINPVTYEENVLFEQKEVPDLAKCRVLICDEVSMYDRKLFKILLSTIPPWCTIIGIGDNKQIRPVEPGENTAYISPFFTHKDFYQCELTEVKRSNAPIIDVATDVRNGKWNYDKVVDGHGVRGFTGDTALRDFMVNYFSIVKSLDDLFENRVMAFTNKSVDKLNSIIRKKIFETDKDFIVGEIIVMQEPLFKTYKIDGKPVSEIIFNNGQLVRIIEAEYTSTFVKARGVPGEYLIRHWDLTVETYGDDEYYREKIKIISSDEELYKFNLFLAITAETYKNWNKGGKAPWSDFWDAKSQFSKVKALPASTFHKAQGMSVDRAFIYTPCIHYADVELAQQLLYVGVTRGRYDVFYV

[2] = target: T2, Dda 1993 K358M K358M (Enterobacteria phage T4) (UniProt P32270); conditions: nanopore translocation, FLO-MIN106; background mutations not given
T2 sequence: T1 sequence with I358M

[3] = target: T3, Dda 1993 K358L K358L (Enterobacteria phage T4) (UniProt P32270); conditions: nanopore translocation, FLO-MIN106; background mutations not given
T3 sequence: T1 sequence with I358L

[4] = target: T4, Dda 1993 N221E N221E (Enterobacteria phage T4) (UniProt P32270); conditions: nanopore translocation, PromethION; background mutations not given
T4 sequence: T1 sequence with N221E, I358K

[5] = target: T5, Dda 1993 T210K T210K (Enterobacteria phage T4) (UniProt P32270); conditions: nanopore translocation, PromethION; background mutations not given
T5 sequence: T1 sequence with T210K, I358K

[6] = target: T6, Dda 1993 T156F T156F (Enterobacteria phage T4) (UniProt P32270); conditions: nanopore translocation, PromethION; background mutations not given
T6 sequence: T1 sequence with T156F, I358K

## barcoded 3.6 kb DNA analyte ligated to sequencing Y adaptor
[1]
  activity (bps speed delta vs control): -40.2
[2]
  activity (bps speed delta vs control): -48.6
[3]
  activity (bps speed delta vs control): -42.7
[4]
  activity (bps speed delta vs control): 4.37
[5]
  activity (bps speed delta vs control): 0.52
[6]
  activity (bps speed delta vs control): 13.8
